Target: MBP-A3H hap II (APOBEC3H haplotype II, splicing variant SV182, MBP fusion) (human)
Test: SEC-MALS

## MBP-A3H hap II (APOBEC3H haplotype II, splicing variant SV182, MBP fusion) (enzyme)
  stoichiometry N: 14 to 15 monomers

Source: PMC5529715
